Source: the supplement of paper PMC9732359
± gives the uncertainty stated by the source.

Test: protein stability index of a GFP-peptide fusion (yeast GPS) (PSI 1-4); higher = more stable; sorted into four equal gates, so the index is relative within each strain
Settings: pdr5∆
Procedure, shortened: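 Plasmids isolated from each sorting gate were PCR-amplified and Illumina-sequenced, and barcodes assigned the reads to strains. The gates, four of equal size, were set by GFP/Cherry fluorescence ratio on mid-log cultures in leucine-free medium. These cultures were yeast carrying a pooled library of tiled 17-residue yeast protein peptides fused downstream of GFP on a plasmid that also expresses Cherry. The protein stability index is the sum of every gate's read frequency times its gate number.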

Compared with MSDLFTFDWFIKTRTVH [ISW2], MSGSFWTSTQRHHWQYT [SSN8] is lower in protein stability index: 3.17 ± 0.099 for the first, 2.27 ± 0.15 for the second.

Same assay, conditions: san1∆

Going from LRVEHIKHSKCRQEFLE [RPL21A] to LSATQFTQPALTLMEKA [FAS1], the protein stability index rises from 1.17 ± 0.18 to 2.7 ± 0.049.

Compared with LSDRANKNQDAFEAELS [ARP9], LSDRITGNFIIPSGNVW [PRP8] is lower in protein stability index: 3.04 ± 0.07 for the first, 2.84 ± 0.064 for the second.

Going from LSGKFSTIPTRENGKGG [ROX3] to LSGNSVEDVSQNAADLQ [RPL9A], the protein stability index falls from 3.01 ± 0.063 to 2.78 ± 0.13.

Compared with LSHGSLEHVLLVPTASF [FAS1], LSIKNSFIINFISNLPN [NUT1] is higher in protein stability index: 1.33 ± 0.079 for the first, 1.87 ± 0.1 for the second.

First: LSIQYMIQKVMEYLKSS [RPN5]
Second: LSISVAAEPMDSKMIQD [SNU114]
The protein stability index of the first is lower: 1.59 ± 0.2 for the first, 2.84 ± 0.077 for the second.

LSKVAALSGNEGDASPF [RPB2] and LSKVFSDVLFEFTKINT [YJL039C/NUP192] are within error of each other in protein stability index: 2.15 ± 0.083 for the first, 2.09 ± 0.13 for the second.

Compared with LSKVSLLTPDIGAVYSG [PRE8], LSLHTGFIENCNGSALV [MTR3] is higher in protein stability index: 1.73 ± 0.09 for the first, 2.79 ± 0.058 for the second.

Compared with LSLTLNTHYHADYRLIL [SNF2], LSNIEAQFLRSVVHPGE [RPO21] is lower in protein stability index: 2.75 ± 0.1 for the first, 2.45 ± 0.1 for the second.

LSNIPLLLITHHSWSQS [ARP9] and LSPPEFLFHAISGREGL [RPO31] are within error of each other in protein stability index: 1.51 ± 0.073 for the first, 1.48 ± 0.14 for the second.

LSPSGHKTFLVANVKDL [RPL32] and LSQVYPTLVRSVISGNL [CSN12] are within error of each other in protein stability index: 2.84 ± 0.095 for the first, 2.83 ± 0.1 for the second.

LSRNGKPVMEVTSSFFY [FAS1] and LSSLILKIFQEQSLEVF [SRB8] are within error of each other in protein stability index: 2.79 ± 0.086 for the first, 2.88 ± 0.09 for the second.

Going from LSTRAGGLGLNLQTADT [SNF2] to LSYISALGMMTRISSQF [RET1], the protein stability index falls from 2.7 ± 0.076 to 1.43 ± 0.16.

First: LTATPNSINKTTVPFKE [POP1]
Second: LTGSPNNPLVQKKNFLF [ARP7]
The protein stability index of the first is lower: 1.66 ± 0.14 for the first, 2.27 ± 0.16 for the second.

Compared with LTKAQKYLDQVLDHQRA [RPL17B], LTKAQKYLEQVLDHQRA [RPL17A] is lower in protein stability index: 3.03 ± 0.079 for the first, 2.47 ± 0.062 for the second.

Going from LTLIFYDVLHDVFTINP [YML103C/NUP188] to LTLMEKAAFEDLKSKGL [FAS1], the protein stability index rises from 2.3 ± 0.071 to 3.2 ± 0.054.

First: LTNMMSPMGNAYSMGAQ [PGD1]
Second: LTNQLYKNHELLKLERK [SNF2]
The protein stability index of the first is lower: 2.49 ± 0.084 for the first, 3.11 ± 0.039 for the second.

LTRQPTEGRSRDGGLRL [RET1] and LTSNLSNYSRTMTISHL [YJL039C/NUP192] are within error of each other in protein stability index: 2.06 ± 0.15 for the first, 1.98 ± 0.084 for the second.

Compared with LTSTKVKQLENVSSNIV [RPS20], LTVFYAIKKFKTEKDGV [SSN3] is lower in protein stability index: 2.65 ± 0.11 for the first, 2.42 ± 0.061 for the second.

First: LVAKFLYPIFLLDDKKL [YJR042W/NUP85]
Second: LVGSWKKDRATGDADEP [RPO21]
The protein stability index of the first is lower: 1.16 ± 0.073 for the first, 3.15 ± 0.11 for the second.

Going from LVSNPHEIYGSMPLEQL [SRB4] to LVTAGVAAAGITASTLL [CYT1], the protein stability index falls from 3.1 ± 0.19 to 1.62 ± 0.098.

LWDIMGDRQRLGEEHPL [RPT1] and LWGPHGLNSDAEEVRNF [ECM29] are within error of each other in protein stability index: 3.31 ± 0.23 for the first, 3.5 ± 0.27 for the second.

Compared with LWNLNAYRTDVIQALGG [PRP8], LYASDYASYFPYLLETY [RPN7] is lower in protein stability index: 1.88 ± 0.088 for the first, 1.39 ± 0.09 for the second.

Compared with LYEKLKQEIMMSDLFTF [ISW2], LYFYRDPEEVEQQVAEE [RPS0A] is higher in protein stability index: 2.14 ± 0.1 for the first, 3.1 ± 0.082 for the second.

Going from LYHHTTKTILSGTDGST [SRP72] to LYQSLTPQQLQMIQQRH [SNF5], the protein stability index falls from 2.49 ± 0.088 to 1.69 ± 0.053.
